Data: patent publication US20090081760A1, “DMO METHODS AND COMPOSITIONS” (priority 2007, published 2009)

Tested on: Dicamba
Test: LC-MS/MS screen for oxygenase (DMO) activity: E. coli liquid culture expressing ddmC or a variant, grown with dicamba, DCSA detected in supernatant
Format: cell-based
Conditions: for Changed to: C % of control for set / Changed to: C DCSA values (ppm): residue changed to C; for Changed to: M % of control for set / Changed to: M DCSA values (ppm): residue changed to M
Protocol: An LC-MS/MS screen for oxygenase activity was used to detect DCSA. The method comprises a two stage process made up of a liquid cell culture assay coupled to an LC-MS/MS detection screen. In the liquid cell culture stage, the gene of interest, i.e. ddmC or a variant thereof, was cloned under the control of a promoter (e.g. T7 promoter, pET vector) and transformed into an E. coli host cell. […] Cells were spun down, and the supernatant was filtered and diluted tenfold with the inclusion of 8 μM salicylic acid as an internal standard. Samples of the supernatant, and/or optionally the cell pellet (or lysate thereof), from this first stage were analyzed for DCSA levels (i.e. DMO activity level) by LC-MS/MS.
While many oxygenases such as DMO are multi component systems requiring other helper enzymes for activity, it was observed that components in E. coli may substitute for these helper enzymes or functions. Thus, transformation of E. coli with a single “oxygenase” gene from a multi component system nevertheless results in measurable activity for the gene alone, even without other components being co-transformed into the same E. coli cell. Activity is observed because, in E. coli cells, surrogates with homology to the original helper enzymes (e.g. ferredoxin and reductase) may be utilized. Additionally, E. coli can take up substrate (e.g. dicamba) and excrete the product (e.g. DCSA) into the media supernatant, allowing for the speed and simplicity of this cell based screen. No lysis of cells is required. Alternatively, an HPLC-based assay for DMO activity may be utilized. Promising variants were used as templates for additional rounds DOT and or other mutagenesis methods in an iterative manner. […]
Sets of saturation mutagenesis primers (using NNS degenerate triplets) for 31 residues at the active site and involved in the electron transfer chain as indicated in Table 28 were designed and used to introduce mutations into the ddmC gene by means of terminated PCR on the template (ddmC gene with His tag and two changes, T2S+I123L (SEQ ID NO:23) in pMV4 vector (Modular Genetics, Cambridge, Mass.). Resulting PCR products were treated with DpnI to remove the parental template molecules, self-annealed and transformed into chemically competent E. coli Top10 F′ (Invitrogen, Carlsbad, Calif.). Standard DNA cloning methods were utilized (e.g. Sambrook et al., 1989). The individual colonies were grown in liquid culture. DNA was isolated by a standard miniprep procedure and used to transform the chemically competent E. coli (e.g. BL21(DE3)). […] Cells were spun down, and the supernatant was filtered and diluted tenfold with 8 μM salicylic acid as an internal standard. The DCSA levels (i.e. DMO activity level) were determined by LC-MS analysis as described above (e.g. Example 8).
Additional single substitution variants of DMO at residues corresponding to interaction (e.g. subunit interface) domains and the ferredoxin binding site were also prepared and assayed for their effect on enzymatic activity (See also Examples 8A, 8B) by the LC/MS screen. In most cases shown in Table 29, one conservative and one neutral substitution was tried at a given residue.
Table 30 lists DMO activity data (by LC/MS screen) for 58 variants relative to ddmC_M—6his (the wild type ddmC sequence with an N-terminal His tag (SEQ ID NO: 154), while Table 31 lists DMO activity data (by LC/MS screen) for 1685 variants relative to ddmC_RLE6his (the wild type ddmC sequence with T2S and I123L mutations (SEQ ID NO:23), and a C-terminal 6×His tag). The numbering of residues is based on the numbering found in SEQ ID NO:2 or SEQ ID NO:3.

[1] = DCSA relative to control average of the data set

B1: G266S: DMO variant from NNS mutagenesis, more active than the control (protein)
chain: MATFVRNAWYVAALPEELSEKPLGRTILDTPLALYRQPDGVVAALLDICPHRFAPLSDGILVNGHLQCPYHGLEFDGGGQCVHNPHGNGARPASLNVRSFPVVERDALIWICPGDPALADPGAIPDFGCRVDPAYRTVGGYGHVDCNYKLLVDNLMDLGHAQYVHRANAQTDAFDRLEREVIVGDGEIQALMKIPGGTPSVLMAKFLRGANTPVDAWNDIRWNKVSAMLNFIAVAPEGTPKEQSIHSRGTHILTPETEASCHYFFSSSRNFGIDDPEMDGVLRSWQAQALVKEDKVVVEAIERRRAYVEANGIRPAMLSCDEAAVRVSREIEKLEQLEAARLEHHHHHH
Which “DMO activity of NNS mutagenesis variants (in words)” value (NNS saturation mutagenesis variants, 200 to 500 μM Dicamba, 30 hrs, 37° C.) does the source give for B1 here?
The value was “more active than the control”.

And the “Changed to: S % of control for set” value (residue changed to S, DCSA relative to control average of the data set)?
The value was 130.25%.

And the “Changed to: S DCSA values (ppm)” value (residue changed to S, mean +/− SD (n))?
Its value is 34.63 +/− 4.14 (4) ppm.

B2: R248C: DMO substitution variant (protein)
chain: MATFVRNAWYVAALPEELSEKPLGRTILDTPLALYRQPDGVVAALLDICPHRFAPLSDGILVNGHLQCPYHGLEFDGGGQCVHNPHGNGARPASLNVRSFPVVERDALIWICPGDPALADPGAIPDFGCRVDPAYRTVGGYGHVDCNYKLLVDNLMDLGHAQYVHRANAQTDAFDRLEREVIVGDGEIQALMKIPGGTPSVLMAKFLRGANTPVDAWNDIRWNKVSAMLNFIAVAPEGTPKEQSIHSCGTHILTPETEASCHYFFGSSRNFGIDDPEMDGVLRSWQAQALVKEDKVVVEAIERRRAYVEANGIRPAMLSCDEAAVRVSREIEKLEQLEAARLEHHHHHH
Which results are given for B2?
Changed to: C % of control for set [1]: 132.69%; Changed to: C DCSA values (ppm) (mean +/− SD (n)): 35.28 +/− 12.15 (4) ppm

B3: N218H: DMO substitution variant (protein)
chain: MATFVRNAWYVAALPEELSEKPLGRTILDTPLALYRQPDGVVAALLDICPHRFAPLSDGILVNGHLQCPYHGLEFDGGGQCVHNPHGNGARPASLNVRSFPVVERDALIWICPGDPALADPGAIPDFGCRVDPAYRTVGGYGHVDCNYKLLVDNLMDLGHAQYVHRANAQTDAFDRLEREVIVGDGEIQALMKIPGGTPSVLMAKFLRGANTPVDAWHDIRWNKVSAMLNFIAVAPEGTPKEQSIHSRGTHILTPETEASCHYFFGSSRNFGIDDPEMDGVLRSWQAQALVKEDKVVVEAIERRRAYVEANGIRPAMLSCDEAAVRVSREIEKLEQLEAARLEHHHHHH
How did the “Changed to: H % of control for set” value (residue changed to H, DCSA relative to control average of the data set) turn out when B3 was run?
Its value is 104.38%.

What about the “Changed to: H DCSA values (ppm)” value (residue changed to H, mean +/− SD (n)) of the same molecule?
Its value is 39.9 +/− 9.75 (4) ppm.

B4: R248I: DMO substitution variant (protein)
chain: MATFVRNAWYVAALPEELSEKPLGRTILDTPLALYRQPDGVVAALLDICPHRFAPLSDGILVNGHLQCPYHGLEFDGGGQCVHNPHGNGARPASLNVRSFPVVERDALIWICPGDPALADPGAIPDFGCRVDPAYRTVGGYGHVDCNYKLLVDNLMDLGHAQYVHRANAQTDAFDRLEREVIVGDGEIQALMKIPGGTPSVLMAKFLRGANTPVDAWNDIRWNKVSAMLNFIAVAPEGTPKEQSIHSIGTHILTPETEASCHYFFGSSRNFGIDDPEMDGVLRSWQAQALVKEDKVVVEAIERRRAYVEANGIRPAMLSCDEAAVRVSREIEKLEQLEAARLEHHHHHH
What does the source list for B4?
Changed to: I % of control for set (residue changed to I, DCSA relative to control average of the data set): 146.23%; Changed to: I DCSA values (ppm) (residue changed to I, mean +/− SD (n)): 38.88 +/− 3.93 (4) ppm

B5: A169M: DMO substitution variant (protein)
chain: MATFVRNAWYVAALPEELSEKPLGRTILDTPLALYRQPDGVVAALLDICPHRFAPLSDGILVNGHLQCPYHGLEFDGGGQCVHNPHGNGARPASLNVRSFPVVERDALIWICPGDPALADPGAIPDFGCRVDPAYRTVGGYGHVDCNYKLLVDNLMDLGHAQYVHRANMQTDAFDRLEREVIVGDGEIQALMKIPGGTPSVLMAKFLRGANTPVDAWNDIRWNKVSAMLNFIAVAPEGTPKEQSIHSRGTHILTPETEASCHYFFGSSRNFGIDDPEMDGVLRSWQAQALVKEDKVVVEAIERRRAYVEANGIRPAMLSCDEAAVRVSREIEKLEQLEAARLEHHHHHH
Which “Changed to: M % of control for set” value [1] does the source give for B5 here?
The value was 108.70%.

What about the “Changed to: M DCSA values (ppm)” value (mean +/− SD (n)) of the same molecule?
Its value is 28.9 +/− 5.06 (4) ppm.

B6: A287M: DMO substitution variant (protein)
chain: MATFVRNAWYVAALPEELSEKPLGRTILDTPLALYRQPDGVVAALLDICPHRFAPLSDGILVNGHLQCPYHGLEFDGGGQCVHNPHGNGARPASLNVRSFPVVERDALIWICPGDPALADPGAIPDFGCRVDPAYRTVGGYGHVDCNYKLLVDNLMDLGHAQYVHRANAQTDAFDRLEREVIVGDGEIQALMKIPGGTPSVLMAKFLRGANTPVDAWNDIRWNKVSAMLNFIAVAPEGTPKEQSIHSRGTHILTPETEASCHYFFGSSRNFGIDDPEMDGVLRSWQMQALVKEDKVVVEAIERRRAYVEANGIRPAMLSCDEAAVRVSREIEKLEQLEAARLEHHHHHH
Which “Changed to: M % of control for set” value [1] does the source give for B6 here?
The value was 149.32%.

And the “Changed to: M DCSA values (ppm)” value (mean +/− SD (n))?
Its value is 39.7 +/− 5.86 (4) ppm.

B7: A287E: DMO substitution variant (protein)
chain: MATFVRNAWYVAALPEELSEKPLGRTILDTPLALYRQPDGVVAALLDICPHRFAPLSDGILVNGHLQCPYHGLEFDGGGQCVHNPHGNGARPASLNVRSFPVVERDALIWICPGDPALADPGAIPDFGCRVDPAYRTVGGYGHVDCNYKLLVDNLMDLGHAQYVHRANAQTDAFDRLEREVIVGDGEIQALMKIPGGTPSVLMAKFLRGANTPVDAWNDIRWNKVSAMLNFIAVAPEGTPKEQSIHSRGTHILTPETEASCHYFFGSSRNFGIDDPEMDGVLRSWQEQALVKEDKVVVEAIERRRAYVEANGIRPAMLSCDEAAVRVSREIEKLEQLEAARLEHHHHHH
How did the “Changed to: E % of control for set” value (residue changed to E, DCSA relative to control average of the data set) turn out when B7 was run?
Its value is 113.40%.

What about the “Changed to: E DCSA values (ppm)” value (residue changed to E, mean +/− SD (n)) of the same molecule?
Its value is 30.15 +/− 2.76 (4) ppm.

B8: A287C: DMO substitution variant (protein)
chain: MATFVRNAWYVAALPEELSEKPLGRTILDTPLALYRQPDGVVAALLDICPHRFAPLSDGILVNGHLQCPYHGLEFDGGGQCVHNPHGNGARPASLNVRSFPVVERDALIWICPGDPALADPGAIPDFGCRVDPAYRTVGGYGHVDCNYKLLVDNLMDLGHAQYVHRANAQTDAFDRLEREVIVGDGEIQALMKIPGGTPSVLMAKFLRGANTPVDAWNDIRWNKVSAMLNFIAVAPEGTPKEQSIHSRGTHILTPETEASCHYFFGSSRNFGIDDPEMDGVLRSWQCQALVKEDKVVVEAIERRRAYVEANGIRPAMLSCDEAAVRVSREIEKLEQLEAARLEHHHHHH
B8 was tested. Which “Changed to: C % of control for set” value [1] did it give?
The value was 109.56%.

What about the “Changed to: C DCSA values (ppm)” value (mean +/− SD (n)) of the same molecule?
The value was 29.13 +/− 5.46 (4) ppm.

B9: N218M: DMO substitution variant (protein)
chain: MATFVRNAWYVAALPEELSEKPLGRTILDTPLALYRQPDGVVAALLDICPHRFAPLSDGILVNGHLQCPYHGLEFDGGGQCVHNPHGNGARPASLNVRSFPVVERDALIWICPGDPALADPGAIPDFGCRVDPAYRTVGGYGHVDCNYKLLVDNLMDLGHAQYVHRANAQTDAFDRLEREVIVGDGEIQALMKIPGGTPSVLMAKFLRGANTPVDAWMDIRWNKVSAMLNFIAVAPEGTPKEQSIHSRGTHILTPETEASCHYFFGSSRNFGIDDPEMDGVLRSWQAQALVKEDKVVVEAIERRRAYVEANGIRPAMLSCDEAAVRVSREIEKLEQLEAARLEHHHHHH
Which results are given for B9?
Changed to: M % of control for set [1]: 106.92%; Changed to: M DCSA values (ppm) (mean +/− SD (n)): 40.87 +/− 0.62 (2) ppm
